# Test results: the DeepSol protein solubility set
# Assay: soluble on expression in E. coli; label from the status in PepcDB or PDB records
row,Sequence,soluble on expression in E. coli
1,MTSDTFPQLPLSYWIESTQFPTFPRLSENIKTKVAIIGAGITGITTAYLLAKEGIDVVLIDSGRILNGTTGHTTAKVTAQHDLIYDELINHFGVEKARLYYESNNQALQFINKTVQTYKIDCNFSNEDSYLYTTTDNGLRNLSKEYEAYQKLNIPCDYVQSLSIPIPVQSALVMKNQAQFHPLLYLKTLLEKFVEMGGKVYEQTTAMDVEKGDYSQIITKEGHHITCEYVVSCSHFPFYDANSFFFTRMYAERSYALAIKAKTEYPGGMYLSIDDPKRSLRYITNNGEKLILIGGESHKTGQGINTMLHYEALYSFAEATFGIDEVSYRWSAQDLITLDKLPYIGHINERNPNIFVATGYRKWGMTTGTAAAHLLKDSILKVHSPYKELYAPSRFHANPDIKTFLSQNIDVAKHLIAGKIETALRKPEDLEVGEGSVVHVNGKRAGAYKDKEGKLHIVDTTCTHLGCEVEWNNGDCTWDCPCHGSRFSIEGDVLEGPADQPLKRVDNELEHHHHHH,soluble
2,MTSLTNAVFKRYLAVTPSAHQALKTRIKKKSSSFDKFFPQQSNSRKKQWETLNEDKASWFKRKYAHVHAREQDRAADPYGKKKAHVEKLKEIKNQAKLNQKSHKSKFQNKDIALKLMNDNPIFEYVYGTNSVYAALLNPSRNCHSRLLYHGTIPSKFLQIVDELKVTTELVDKHRLNLLTNYGVHNNIALETKPLQPVEIAYLGDMDTSSAALSIHELGFNNENIPHELPYGTKTDAKKFPLGLYLDEITDPHNIGAIIRSAYFLGVDFIVMSRRNCSPLTPVVSKTSSGALELLPIFYVDKPLEFFTKSQEMGGWTFITSHLANATSEKYTVGKTISMHDLNGLCNELPVVLVVGNESQGVRTNLKMRSDFFVEIPFGGIEKGNRAPEPIVDSLNVSVATALLIDNILTCK,soluble
3,MTSPDEHSPEKKDSENEVVPAGPKQKAKCLEKETKSPPKPSDLSKAERKEKNNKTARRDVKSSRGNVKTMKPSVVKVEERSSRSKKSIREGKLKNFSLPKDEPEITALQLDAELTKSARLMEEYKIALEQIITTLVSMMRRGNGTVDMENIVSDKGQTAAEKLNKEVQLTQNYWKTDTKLQPAMNDAIAKNTVVLAAAERNLQTQGPQHLKRVKKFLYGQYPKYVDMKRDLLKIVKQQKPEAQSVRDESAQAISKFIKEKYVNAKIYASRRNSKCFRRVELFPSYIRFYLASNR,soluble
4,MTSRPSSDQTWQPIDGRVALIAPASAIATDVLEATLRQLEVHGVDYHLGRHVEARYRYLAGTVEQRLEDLHNAFDMPDITAVWCLRGGYGCGQLLPGLDWGRLQAASPRPLIGFSDISVLLSAFHRHGLPAIHGPVATGLGLSPLSAPREQQERLASLASVSRLLAGIDHELPVQHLGGHKQRVEGALIGGNLTALACMAGTLGGLHAPAGSILVLEDVGEPYYRLERSLWQLLESIDARQLGAICLGSFTDCPRKEVAHSLERIFGEYAAAIEVPLYHHLPSGHGAQNRAWPYGKTAVLEGNRLRW,soluble
5,MTSSLSLHSSFVPSFADLSDRGLISKNSPTSVSISKVPTWEKKQISNRNSFKLNCVMEKSVDGQTHSTVNNTTDSLNTMNIKEEASVSTLLVNLDNKFDPFDAMSTPLYQTATFKQPSAIENGPYDYTRSGNPTRDALESLLAKLDKADRAFCFTSGMAALSAVTHLIKNGEEIVAGDDVYGGSDRLLSQVVPRSGVVVKRVNTTKLDEVAAAIGPQTKLVWLESPTNPRQQISDIRKISEMAHAQGALVLVDNSIMSPVLSRPLELGADIVMHSATKFIAGHSDVMAGVLAVKGEKLAKEVYFLQNSEGSGLAPFDCWLCLRGIKTMALRIEKQQENARKIAMYLSSHPRVKKVYYAGLPDHPGHHLHFSQAKGAGSVFSFITGSVALSKHLVETTKYFSIAVSFGSVKSLISMPCFMSHASIPAEVREARGLTEDLVRISAGIEDVDDLISDLDIAFKTFPL,soluble
6,MTSTPIERAVYIVSDSTGITAETFSHSVLSQFDEVNFKPVRLPFIDTLDKAREVVARINRNALEAGVPPIVFSTLVNPEILALVRQSNGVFLDLFGTFVSHIEQALGLKSSHSIGRSHMAANSEKYRNRIDAINFSLAHDDGQFVNQLDQADVILLGVSRCGKTPTSLYLAMQYAVKAANFPLTPDDFERGALPKTIAPYRGKLFGLSIQPERLAEVRNERRPNSHYARLEQCRYEVAEAERMMRREGISWLSTTTKSIEEIATTVLQEVGLERVAAALEHHHHHH,soluble
7,MTSVGPGQPQKELIRAQNGTYEVTKPLATGTFGSIYKVKRESDGKFFAVKCEALNMKSSLLRQMSVVLASIHHPSPFFTNIEERGTVPNRFLFIVMPLYGENLYELMMNTNKDRKFSMATGLHLAEQTLAAIRDLHRNGFIHRDIKPSHFCIGREIDGQHHQVYLLDFGLCKRPRFVKKNDEAEEQMRKNAIHYRGVVKYASVHAHQGKNLGYKDDMESWWYMVLEFFLGALPWALLNKESEQDVLHLKRRITAPMVASVWRTTPETTAGFFDLLTIIREPKDVAEFVEYDRIADGIQKLFEKSKSNTQEPPDWDCMTDYKGPGYQQVLMIAPPEVGLKPEMDFGKSDPGAGGESGEQPKKEDVDKKKKKKKKSKKKGKSNNKTTSAEEQKGGKCAPPSRVRDERRETRDETVCEIETRSR,not soluble
8,MTTDYDFWLFDLDGTLVDIEPAYPRKVMGAVGDRLGVEFTDRERDALWYGFGGTRSRTLAERNVDQQEFWRLFHEEEDPIARAEATYLYDDAEQFLATLDTPVGLVTHCQQYLTEPVLDHLDITDWFETVVCCDDDIGWKPDPKPVELAMREMDVWYNGHHGVLAGDNPSDIGAAWNAGLDGVHVGRRSPTETGRCVRGDRRVASLLDLSSSQGR,not soluble
9,MTTINPTNYTLLKKQAASLIEDEHHMIAILSNMSALLNDNLDQINWVGFYLLEQNELILGPFQGHPACVHIPIGKGVCGTAVSERRTQIVADVHQFEGHIACDANSKSEIVVPIFKDDKIIGVLDIDAPITDRFDDNDKEHLEAIVKIIEKQLA,not soluble
10,MTTKNKRVLQKCAYREEFKGDMERSTAATSKLPLEVELSRNSKGLIIILSSPSGTGKSSLAKALLKIDNNLRLSISATTRKPRLGEVEGINYYFKTGLEFEELVKQNKFLEYAKIYDNYYGTPKEYVEMLLNQGLDVLFDIDWQGARSIKKNATNVVTIFVLPPNIEVLEQRLRNRATDNEEAIKLRMQLAQNEISHANEYDYVVTNDDFDRTLKKIHAIIVAARDKAF,soluble
11,MTTKPPIERIMYIELRTSLEMFRSDLVDLEALANAAKEALEQLPYIPKNPCGKGEDDDPLSGPESALRTGRLCGLVCCTATAAEGALSTCSKLIDWAYANEPEGVDDAVLADDIDGDDDDDDEGSGSNGANGGGGANGSGNGSNGSGNGGPPDGGVESAAPAGSTELAEARPSRGGIALDLPPAHAPHGAPVA,not soluble
12,MTTLYLASGSPRRQELLTQLGFSFEQVVPGIEEQRRAQESAQQYVVRLAREKAQAGVALVPRDLPVLGADTIVVLNGEVLEKPRDAAHAAEMLRLLSGNTHQVMTAVALADSQQTLDCLVVTEVTFRTLSAQDITGYVASGEPLDKAGAYGIQGRGGCFVRKINGSYHAVVGLPLVETYELLSHFNALRDKRDKHDG,not soluble
13,MTTNRETVLSMAKRKRSVVAINASGWRSNGEVMGLQIKDGVLYKDYDAAGYTGAEACVFFDDGTMKVYGNREVDADILISKGARNSFAFGIWLVKDSKPRTAQMTTWADLNVKHPRQAIGQRSDGTLVIITVDGRSLRSSGITAYDMPSLFLSEGCINAFLLDGGGSSQTAVEGKYINNISDGIERAVVDTLTISYPDDLEHHHHHH,not soluble
14,MTTNYVLRKPWRWLTISKDMMINEQIRAREVRLVGANGDQLGIKSRNDALDLAANLNLDLVLVAPNAKPPVCRIMDYGKFRFEQQKKEKEQRKNQKVISMKEVRLSPTIDEHDFNTKLRNAIKFLEKGDKVKASIRFKGRAITHKEIGQRVLDRFSEACAEVSTIESKPKMEGRSMFLVLAPKNDK,not soluble
15,MTTPAVKMVVAYVTAPSKEVAMTVARTTVTEALAACANVIPEVTSVYKWQGKIEEDQEHVVILKTVESKVEELSARVRSLHPAETPCFFTLAIDKITPDFGGWIVDSTNSSTAKH,soluble
16,MTTPNPLAKTKGAGTTFWMYTGNGDAFANPLSDTDWLRLAMVKDLQPGEMTADAEDDTYLDDEDADWKTTTQGQKSVGDTSATLACRPGDSGQKKLVQLFDSGEVCAFRIKYPNGTVDVFRGWLSSLGKTIASKDVMTRTVKISGVGRPYLAEEGTETVGVTGLTVAPASVSVKAGATTTLTFTVKPDGASDKAISVHSSDPQTASVTLSGLVATVKGVKQGSVSIVGMTSDGEFVAVAAVTVSAP,not soluble
17,MTTQFKPELLSPAGSLKNMRYAFAYGADAVYAGQPRYSLRVRNNEFNHANLKIGIDEAHSLGKKFYVVVNIAPHNSKLKTFIKDLQPVIDMKPDALIMSDPGLIMLVRENFPNIDIHLSVQANAVNWATVKFWKQMGLTRVILSRELSIDEIAEIRQQVPDIELEIFVHGALCMAYSGRCLLSGYINKRDPNQGTCTNACRWEYKMEEGTTDDVGNIVPKIDPAQQIEVKNVAPTLGEGAVTDKVFLYTESQKPDEQMTAFEDKHGTYFMNSKDLRAVQHVEKLTALGVHSLKIEGRTKSFYYCARTAQVYRKAIDDAAAGKPFDESLMDTLESLAHRGYTEGFLRRHTHDEYQNYEYGYSISDRQQFVGEFTGKRNEQGMAEVAVKNKFLLGDNVEMMTPQGNINFKIEKMLNRKNETVDAALGDGHFVFLNVPQDINLNYALLMRNLVNTNTRNPHSN,not soluble
18,MTTQTIDSAPHATWFVGASYGGTDDQMPRFLAEGIWENGYDDKLLEVVRSMRPGERIAIKSSYTRKHGLPFDSRGRAVSVMGIKAVGTITENLNDGKRVKVDWAKVEPVREWYFYTHRATIWRVLPGEWMNDALIAFAFDGKPQDVDRFRNEPFWRERYGTTSPEKQRFEWTDFYEAVAEKLLAHADDRTPLIEGIHEIASRVPGLTYLQDKFPDGTSGPLRDICPFTTMGTFNRSMTDANRKTLAGELAKLLGVTVPVPPSFEGIPVLNNQRSWFFAYADKRGAGDIDALWKVFVAASKMVDGDQLDTRDAFIRAYDEATQVWGVAWNLSTGLYWAHPWEFLTLDSQSRHYINKRLGLNVAISGQQGPCDGRAYLKLLDDLRSRFGEDGYPVHSFPDLSLASWMYKDPVDEPVPAGDIGTNAGAEQETEGEVREAFQVAAPIVPYSVEDILKDGCFLERAEIDRLLDRLRTKKNLILQGPPGTGKTWLAKRLAFALMGQKDDSKVRAVQFHPNLSYEDFVRGWRPTGEGKLSLADGVFMEAIKAASKDPSSKFVVVIEEINRGNPAQIFGELLTLLEAGKRTPNEALELCYPDADGKRRPVHIPENLYVVGTMNIADRSLALVDLALRRRFAFVGLEPRLGQVWRDWVVKECAVDPGLVADIERRIAELNDQIAADARLGKQFRIGHSYVTPAHRLEAGDTKKWFLQVVETEIGPLLDEYWFDAPDEAQKAIARLTQGWLEHHHHHH,soluble
